In the supplement of paper PMC9732359:
± gives the uncertainty stated by the source.

Assay: protein stability index of a GFP-peptide fusion (yeast GPS) (PSI 1-4); higher = more stable; sorted into four equal gates, so the index is relative within each strain
Outline: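 Peptides tiling yeast proteins in 17-residue segments were fused downstream of GFP, with Cherry expressed from the same plasmid. As a pooled library in yeast, mid-log cultures grown in leucine-free medium were sorted into four equal gates by GFP/Cherry fluorescence ratio. Gate plasmids were PCR-amplified and Illumina-sequenced, and barcodes linked reads to strains. Each peptide received a protein stability index equal to the sum of each gate's read frequency times its gate number.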

Row | Sequence | protein stability index (doa10∆) | protein stability index (pdr5∆) | protein stability index (san1∆) | protein stability index (ubr1∆)
1 | SNDKFVHVQLLINLKIS [SRB8] | 1.51 ± 0.042 | 1.82 ± 0.045 | 1.6 ± 0.064 | 1.61 ± 0.034
2 | SNEFVPNTSDNNNNSNN [SWI1] | 2.59 ± 0.1 | 2.79 ± 0.11 | 2.71 ± 0.095 | 2.88 ± 0.066
3 | SNGFNNVTFGSKKDPRI [YMR153W/NUP53] | 2.77 ± 0.048 | 2.74 ± 0.059 | 2.89 ± 0.045 | 2.87 ± 0.046
4 | SNGGGKVKPIRGFCQRL [RPO31] | 2.94 ± 0.13 | 3.12 ± 0.11 | 3.09 ± 0.097 | 3.25 ± 0.065
5 | SNGNNLPLNKPRLEKLI [RGR1] | 3.27 ± 0.052 | 3.36 ± 0.056 | 3.18 ± 0.055 | 3.16 ± 0.063
6 | SNIITKSLVQYIELLPN [DIS3] | 2.64 ± 0.072 | 2.08 ± 0.065 | 2.22 ± 0.072 | 2.38 ± 0.05
7 | SNIPRGSVIQTHIAESA [MCD1] | 2.81 ± 0.1 | 2.88 ± 0.084 | 2.62 ± 0.09 | 2.91 ± 0.051
8 | SNLEKLPKYKEKKAASA [MED7] | 2.14 ± 0.06 | 2.82 ± 0.06 | 2.83 ± 0.06 | 2.25 ± 0.057
9 | SNLSPDLKFKRHKNKHI [DSN1] | 2.71 ± 0.1 | 2.58 ± 0.15 | 2.28 ± 0.077 | 2.17 ± 0.13
10 | SNLTIYPIYELLMSCPR [GRR1] | 1.72 ± 0.083 | 1.75 ± 0.071 | 1.89 ± 0.13 | 1.83 ± 0.056
11 | SNMILGSVELSTGDYTF [YML103C/NUP188] | 2.48 ± 0.055 | 2.35 ± 0.065 | 2.16 ± 0.077 | 2.43 ± 0.037
12 | SNMQKSLLPYYHLTKAV [RPN3] | 2.02 ± 0.038 | 1.87 ± 0.044 | 1.85 ± 0.062 | 1.92 ± 0.033
13 | SNNITSGLNRAISTGNW [RET1] | 3.13 ± 0.11 | 3.37 ± 0.11 | 3.25 ± 0.061 | 3 ± 0.079
14 | SNQFKRSLATAVATPKA [COR1] | 1.55 ± 0.051 | 1.75 ± 0.049 | 1.35 ± 0.089 | 1.3 ± 0.041
15 | SNQRFKDLQWLEFARIT [SIN4] | 3.17 ± 0.064 | 3.13 ± 0.057 | 2.74 ± 0.068 | 3.15 ± 0.073
16 | SNRCIVFSKKEPFPHSK [CSN12] | 2.58 ± 0.052 | 2.85 ± 0.047 | 2.81 ± 0.065 | 2.72 ± 0.043
17 | SNSDNCPEEFAESMCQE [SNF5] | 3.25 ± 0.065 | 3.33 ± 0.069 | 3.27 ± 0.041 | 3.01 ± 0.068
18 | SNTYKEERSNNLLTPQP [MCD1] | 2.76 ± 0.078 | 3.18 ± 0.094 | 3.01 ± 0.046 | 3.2 ± 0.051
19 | SNVFGSNNSTTNTFGSN [YJL041W/NSP1] | 3.08 ± 0.063 | 3.44 ± 0.076 | 3.22 ± 0.043 | 3.47 ± 0.054
20 | SNYSRTMTISHLLLGFQ [YJL039C/NUP192] | 1.82 ± 0.05 | 1.69 ± 0.044 | 1.59 ± 0.058 | 2.1 ± 0.034
21 | SPHYNSQKQTLIKKPLT [SSN3] | 2.52 ± 0.064 | 2.87 ± 0.056 | 2.46 ± 0.058 | 2.65 ± 0.036
22 | SPISDSRDELIRLAKTL [RPN10] | 1.84 ± 0.095 | 1.77 ± 0.084 | 2.37 ± 0.16 | 2.24 ± 0.085
23 | SPIVNVLEDVYRCFAQL [RRI2] | 2.53 ± 0.18 | 3.19 ± 0.17 | 2.9 ± 0.14 | 3.09 ± 0.083

Row | Sequence | protein stability index (doa10∆) | protein stability index (pdr5∆) | protein stability index (san1∆) | protein stability index (ubr1∆)
24 | SPMGNAYSMGAQNQGGQ [PGD1] | 2.57 ± 0.062 | 2.91 ± 0.069 | 2.91 ± 0.064 | 2.71 ± 0.043
25 | SPMLYKVPDISSDGQLK [BRR2] | 2.52 ± 0.047 | 2.56 ± 0.045 | 2.61 ± 0.054 | 2.58 ± 0.03
26 | SPNPTLQPVIPGGAASK [SNF5] | 3.23 ± 0.093 | 3.24 ± 0.082 | 3.19 ± 0.058 | 2.88 ± 0.059
27 | SPSYSPTSPSYSPTSPS [RPO21] | 2 ± 0.032 | 2.33 ± 0.03 | 2.06 ± 0.034 | 2.1 ± 0.025
28 | SPVSSVHTANFSERGSN [MED2] | 2.71 ± 0.083 | 2.82 ± 0.068 | 2.53 ± 0.072 | 2.86 ± 0.044
29 | SPVYDVDPRIINSENDY [NUT1] | 2.92 ± 0.08 | 3.02 ± 0.074 | 2.39 ± 0.08 | 2.76 ± 0.059
30 | SPYNADFDGDEMNLHVP [RPO21] | 3.15 ± 0.076 | 3.27 ± 0.068 | 3.15 ± 0.078 | 3.1 ± 0.061
31 | SQCRLHELREKERISVA [PRE2] | 2.25 ± 0.11 | 2.59 ± 0.097 | 2.87 ± 0.097 | 1.67 ± 0.04
32 | SQEREFSLLVKAEIPPE [SIN4] | 3.04 ± 0.1 | 2.98 ± 0.072 | 2.96 ± 0.073 | 2.83 ± 0.061
33 | SQESINQKLALVIKSGK [RPL30] | 2.32 ± 0.097 | 2.65 ± 0.13 | 2.31 ± 0.11 | 2.4 ± 0.058
34 | SQFNGSGNGSNPNTNTN [PGD1] | 2.48 ± 0.072 | 2.68 ± 0.068 | 2.84 ± 0.076 | 2.89 ± 0.034
35 | SQHGQGNNPSWVNNPKK [YDL088C/ASM4] | 3.2 ± 0.14 | 3.52 ± 0.16 | – | –
36 | SQKAKLMTFNAETKSYD [YLR335W/NUP2] | 2.55 ± 0.065 | 2.27 ± 0.046 | 2.3 ± 0.057 | 2.92 ± 0.053
37 | SQQNIVPNSSDQAELPN [SNF2] | 2.73 ± 0.06 | 2.67 ± 0.079 | 3.04 ± 0.057 | 3.01 ± 0.069
38 | SQSSNANICLTFLESIN [SIN4] | 2.42 ± 0.048 | 2.61 ± 0.054 | 2.55 ± 0.05 | 2.74 ± 0.048
39 | SQTMAETYVASYVVPRL [ECM29] | 1.85 ± 0.042 | 1.82 ± 0.049 | 1.9 ± 0.069 | 2 ± 0.038
40 | SQTTQLAGMDVEDALDK [FAS2] | 3.31 ± 0.094 | 3.47 ± 0.11 | 3.31 ± 0.083 | 3.62 ± 0.071
41 | SQWNDSSIDKIEDRDFL [SIR3] | 2.99 ± 0.17 | 3.21 ± 0.27 | 3.23 ± 0.28 | 3.32 ± 0.15
42 | SQYSTMVNIGLHNLNEY [RGR1] | 1.16 ± 0.14 | 2.09 ± 0.1 | 1.16 ± 0.09 | 1.25 ± 0.13
43 | SRDLDISSSTQCLRFLK [POP6] | 2.46 ± 0.1 | 2.24 ± 0.05 | 2.7 ± 0.14 | 3.05 ± 0.061
44 | SRGIVIGSGAMSPLECR [RPP1] | 1.69 ± 0.031 | 2.34 ± 0.048 | 2.12 ± 0.069 | 2.44 ± 0.036
45 | SRSRSSIRSISPAGKYK [ESC2] | 2.84 ± 0.14 | 2.96 ± 0.099 | 3.17 ± 0.064 | 3.14 ± 0.085
